The experiment concerns the target SARS-CoV-2 (2019-nCov) Spike S1 (Abclonal, RP01262) (SARS-CoV-2) (UniProt P0DTC2). The experiment is described as follows: SPR. Background: Surface plasmon resonance follows binding to a sensor surface in real time, without labels.

For orientation: Kd means the free concentration of one partner at which half of the binding sites on the other are occupied at equilibrium, for simple one-to-one binding. “Human integrin αvβ3 (R&D Systems, 3817-AV-050) (from UniProt P06756 31-1048; P05106 27-718) (complex)” returned a Kd of 0.0404 µM.

The substance “suPAR (purified protein of the SPR assay) (from UniProt Q03405 23-305) (natural protein)” displayed a Kd above 2000 µM.

The record behind these values is publication PMC10362037.
